Values quoted from earlier work in patent US20230107428A1 (priority 2021, published 2023).

B1: sarilumab (antibody, chains of the INN, looked up, V domains shown)
VH: EVQLVESGGGLVQPGRSLRLSCAASRFTFDDYAMHWVRQAPGKGLEWVSGISWNSGRIGYADSVKGRFTISRDNAENSLFLQMNGLRAEDTALYYCAKGRDSFDIWGQGTMVTVSS
VL: DIQMTQSPSSVSASVGDRVTITCRASQGISSWLAWYQQKPGKAPKLLIYGASSLESGVPSRFSGSGSGTDFTLTISSLQPEDFASYYCQQANSFPYTFGQGTKLEIK

Assays:
hepatitis B virus = details: in vitro; cited from earlier work
interleukin-6 receptor = target: T1, interleukin-6 receptor (Homo sapiens, UniProt P08887); details: tocilizumab or sarilumab, intensive care units; cited from earlier work
T1 construct: host or cells: patients (endogenous receptor)
T1 sequence (P08887 20-468): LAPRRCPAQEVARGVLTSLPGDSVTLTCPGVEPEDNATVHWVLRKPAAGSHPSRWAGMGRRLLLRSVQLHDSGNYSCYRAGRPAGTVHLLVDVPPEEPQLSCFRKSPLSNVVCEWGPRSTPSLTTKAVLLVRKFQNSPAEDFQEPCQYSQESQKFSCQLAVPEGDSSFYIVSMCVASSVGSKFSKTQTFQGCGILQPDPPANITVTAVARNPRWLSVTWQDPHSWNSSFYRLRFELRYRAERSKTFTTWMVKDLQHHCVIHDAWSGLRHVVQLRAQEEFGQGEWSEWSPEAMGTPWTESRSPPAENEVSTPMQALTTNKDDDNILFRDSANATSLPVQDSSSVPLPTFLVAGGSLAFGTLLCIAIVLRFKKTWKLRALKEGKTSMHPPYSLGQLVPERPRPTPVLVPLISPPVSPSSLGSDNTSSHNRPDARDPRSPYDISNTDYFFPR

Molecule	inhibition of hepatitis B virus (hepatitis B virus)	survival in severe patients (interleukin-6 receptor)
CC(=O)O[C@H]([C@@H]1C[C@@H](C)C2=C3C=C[C@H]4[C@@]5(C)CCC(=O)C(C)(C)[C@@H]5CC[C@]4(C)[C@@]3(C)C[C@@H]2O1)C(C)(C)O [Alisol O]	could inhibit	
tocilizumab [reference compound]		increased
B1		increased
